Where two headings read alike, the source gives them in different places.

Holding throughout (assay): AlphaScreen or HTRF
Assay [1] concerns the target His6-tagged GFP–SRY-HMG F67V (SRY residues 55–141) (human) (UniProt Q05066).
In assay [2] the target is His6-tagged GFP–SRY-HMG M64T (SRY residues 55–141) (human) (UniProt Q05066).
For assay [3], the target named is His6-tagged GFP–SRY-HMG R76P (SRY residues 55–141) (human) (UniProt Q05066).
The target is the same in assay [4]. The source holds these as a separate data set.

The term Kd denotes a measure of binding affinity in units of concentration. For “biotin-labelled calmodulin (CaM) (from UniProt P0DP23 1-149) (natural protein)”, the Kd was 1.25 nM in assay [1], 2.05 nM in assay [2], 1.18 nM in assay [3] and 2.05 nM in assay [4].
